Data: publication PMC12881670, “Investigation into ligand selectivity and bias at the formyl peptide receptor family” (The Journal of Pharmacology and Experimental Therapeutics, 2025)
Where no end group is shown, it is not given here. [ ]: non-standard residue; d: D form.

Experiments:
[1] = biological target: T1, FLAG-Hs_FPR1 C-terminally fused to Renilla Luciferase 8 (human, UniProt P21462 1-350); experiment: cell-based or functional assay
T1 sequence (looked up): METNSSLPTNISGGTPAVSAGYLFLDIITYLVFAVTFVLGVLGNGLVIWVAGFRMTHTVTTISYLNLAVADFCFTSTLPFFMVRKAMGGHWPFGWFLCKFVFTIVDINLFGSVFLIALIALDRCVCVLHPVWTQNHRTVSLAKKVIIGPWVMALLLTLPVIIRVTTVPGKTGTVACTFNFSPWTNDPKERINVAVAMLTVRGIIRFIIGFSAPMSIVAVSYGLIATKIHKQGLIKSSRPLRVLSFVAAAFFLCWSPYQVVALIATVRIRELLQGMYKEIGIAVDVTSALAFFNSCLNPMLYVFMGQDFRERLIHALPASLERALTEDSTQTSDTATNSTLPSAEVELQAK

[2] = biological target: T2, FLAG-Mm_Fpr2 C-terminally fused to Renilla Luciferase 8 (mouse, UniProt O88536 1-351); experiment: cell-based or functional assay
T2 sequence (looked up): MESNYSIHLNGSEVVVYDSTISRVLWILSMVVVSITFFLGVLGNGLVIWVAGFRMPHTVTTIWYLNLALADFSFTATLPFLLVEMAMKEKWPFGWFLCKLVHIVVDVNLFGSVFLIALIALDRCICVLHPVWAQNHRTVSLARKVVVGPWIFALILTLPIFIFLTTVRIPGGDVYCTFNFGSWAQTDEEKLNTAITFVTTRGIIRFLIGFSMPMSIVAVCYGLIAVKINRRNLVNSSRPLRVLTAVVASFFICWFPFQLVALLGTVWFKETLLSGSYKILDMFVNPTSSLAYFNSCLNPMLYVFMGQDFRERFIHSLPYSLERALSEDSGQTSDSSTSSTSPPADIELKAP

[3] = biological target: T3, FLAG-Mm_Fpr1 C-terminally fused to Renilla Luciferase 8 (mouse, UniProt P33766 1-364); experiment: cell-based or functional assay
T3 sequence (looked up): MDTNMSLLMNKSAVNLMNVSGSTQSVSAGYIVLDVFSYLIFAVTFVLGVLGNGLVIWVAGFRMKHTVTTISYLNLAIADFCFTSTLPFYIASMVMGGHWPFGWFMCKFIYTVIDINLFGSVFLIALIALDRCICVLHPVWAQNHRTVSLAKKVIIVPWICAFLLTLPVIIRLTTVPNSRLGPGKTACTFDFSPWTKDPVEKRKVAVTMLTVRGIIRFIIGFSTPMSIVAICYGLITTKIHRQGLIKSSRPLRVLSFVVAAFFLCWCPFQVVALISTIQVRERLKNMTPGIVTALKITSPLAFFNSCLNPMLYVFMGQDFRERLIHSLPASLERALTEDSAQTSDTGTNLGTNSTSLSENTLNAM

[4] = biological target: T4, FLAG-Hs_FPR2 C-terminally fused to Renilla Luciferase 8 (human, UniProt P25090 1-351); experiment: cell-based or functional assay
T4 sequence (looked up): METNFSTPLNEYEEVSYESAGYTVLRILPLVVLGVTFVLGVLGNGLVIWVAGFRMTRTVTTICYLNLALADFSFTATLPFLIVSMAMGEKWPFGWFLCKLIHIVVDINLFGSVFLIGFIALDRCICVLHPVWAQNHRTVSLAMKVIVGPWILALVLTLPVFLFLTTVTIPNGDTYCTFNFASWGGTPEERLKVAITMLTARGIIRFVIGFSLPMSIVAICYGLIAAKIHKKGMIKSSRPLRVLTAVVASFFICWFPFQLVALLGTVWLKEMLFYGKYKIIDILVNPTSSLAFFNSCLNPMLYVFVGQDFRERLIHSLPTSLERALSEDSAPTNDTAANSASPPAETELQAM

[5] = biological target: T1, FLAG-Hs_FPR1 C-terminally fused to …; experiment: cell-based or functional assay; remark: listed apart in the source
[6] = biological target: T2, FLAG-Mm_Fpr2 C-terminally fused to …; experiment: cell-based or functional assay; remark: listed apart in the source
[7] = biological target: T3, FLAG-Mm_Fpr1 C-terminally fused to …; experiment: cell-based or functional assay; remark: listed apart in the source
[8] = biological target: T4, FLAG-Hs_FPR2 C-terminally fused to …; experiment: cell-based or functional assay; remark: listed apart in the source
[9] = biological target: T5, FLAG-tagged mouse Fpr2 (Mm_Fpr2) (mouse, UniProt O88536 1-351); experiment: flow cytometry on cells; competition binding: HEK293 cells stably expressing the receptor, lifted in PBS, on ice 90 min with 10 nM K(5/6-FAM)-WKYMVm and increasing unlabeled ligand; mean fluorescence of 5000 cells as % of that without competitor; One site-Fit logIC50
T5 construct: mouse formyl peptide receptor 2; cDNA purchased (ThermoFisher); source: HEK293, stably expressed, on cells; not shown: FLAG, N-terminal, kept
T5 sequence (looked up): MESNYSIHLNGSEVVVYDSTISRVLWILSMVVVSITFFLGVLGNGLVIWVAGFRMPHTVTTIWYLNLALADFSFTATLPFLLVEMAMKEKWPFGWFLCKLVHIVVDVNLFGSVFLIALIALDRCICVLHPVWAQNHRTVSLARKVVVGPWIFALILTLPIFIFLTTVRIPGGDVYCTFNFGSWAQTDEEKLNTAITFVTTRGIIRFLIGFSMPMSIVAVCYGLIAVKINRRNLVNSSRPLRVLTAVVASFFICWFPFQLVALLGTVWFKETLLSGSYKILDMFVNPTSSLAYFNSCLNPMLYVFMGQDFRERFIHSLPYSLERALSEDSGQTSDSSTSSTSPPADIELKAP

[10] = biological target: T6, FLAG-tagged human FPR2 (Hs_FPR2) (human, UniProt P25090 1-351); experiment: as above
T6 construct: human formyl peptide receptor 2; also called hFPR2; source: HEK293, stably expressed, on cells; not shown: FLAG, N-terminal, kept
T6 sequence (looked up): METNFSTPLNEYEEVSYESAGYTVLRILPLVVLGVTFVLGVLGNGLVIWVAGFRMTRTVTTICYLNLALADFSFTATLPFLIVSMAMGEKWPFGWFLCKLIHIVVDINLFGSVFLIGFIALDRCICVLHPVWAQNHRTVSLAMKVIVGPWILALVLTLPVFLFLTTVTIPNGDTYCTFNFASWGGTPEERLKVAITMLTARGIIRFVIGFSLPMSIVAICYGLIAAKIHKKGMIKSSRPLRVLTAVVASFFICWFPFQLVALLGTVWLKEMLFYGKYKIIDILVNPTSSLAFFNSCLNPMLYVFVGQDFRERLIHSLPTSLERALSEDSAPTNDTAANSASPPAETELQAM

[11] = biological target: T7, FLAG-tagged mouse Fpr1 (Mm_Fpr1) (mouse, UniProt P33766 1-364); experiment: as above
T7 construct: mouse formyl peptide receptor 1; cDNA purchased (ThermoFisher); source: HEK293, stably expressed, on cells; not shown: FLAG, N-terminal, kept
T7 sequence (looked up): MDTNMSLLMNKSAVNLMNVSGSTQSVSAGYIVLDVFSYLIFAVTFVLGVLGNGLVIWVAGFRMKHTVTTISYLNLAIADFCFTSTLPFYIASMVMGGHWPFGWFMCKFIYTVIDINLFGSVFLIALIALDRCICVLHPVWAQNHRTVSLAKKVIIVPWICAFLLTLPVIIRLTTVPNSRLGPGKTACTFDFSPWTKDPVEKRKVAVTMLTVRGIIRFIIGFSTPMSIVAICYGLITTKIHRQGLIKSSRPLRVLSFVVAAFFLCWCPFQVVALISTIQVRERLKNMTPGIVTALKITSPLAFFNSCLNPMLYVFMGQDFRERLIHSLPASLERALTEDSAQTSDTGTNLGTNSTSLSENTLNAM

BRET of receptor-RLuc8 with Venus-mGsi: Emax (% of 1 μM WKYMVm) [1]: 112% | BRET of receptor-RLuc8 with Venus-mGsi: Emax (% of 1 μM WKYMVm) [2]: 103% | BRET of receptor-RLuc8 with Venus-mGsi: Log EC50 (M) [2]: -7.51 log M | BRET of receptor-RLuc8 with Venus-mGsi: Emax (% of 1 μM WKYMVm) [3]: 109% | BRET of receptor-RLuc8 with Venus-mGsi: Log EC50 (M) [3]: -6.69 log M | BRET of receptor-RLuc8 with Venus-mGsi: Emax (% of 1 μM WKYMVm) [4]: 100% | BRET of receptor-RLuc8 with Venus-mGsi: Log EC50 (M) [4]: -8.11 log M | BRET of receptor-RLuc8 with Arrestin 3-YFP: Emax (% of 1 μM WKYMVm) [5]: 105% | BRET of receptor-RLuc8 with Arrestin 3-YFP: Log EC50 (M) [5]: -7.3 log M | BRET of receptor-RLuc8 with Arrestin 3-YFP: Emax (% of 1 μM WKYMVm) [6]: 101% | BRET of receptor-RLuc8 with Arrestin 3-YFP: Log EC50 (M) [6]: -7.46 log M | BRET of receptor-RLuc8 with Arrestin 3-YFP: Emax (% of 1 μM WKYMVm) [7]: 112% | BRET of receptor-RLuc8 with Arrestin 3-YFP: Log EC50 (M) [7]: -6.8 log M | BRET of receptor-RLuc8 with Arrestin 3-YFP: Emax (% of 1 μM WKYMVm) [8]: 102% | BRET of receptor-RLuc8 with Arrestin 3-YFP: Log EC50 (M) [8]: -8.13 log M | Log IC50 [9]: -7.18 log M | Max Comp (%) [9]: 97.5% | Log IC50 [10]: -7.7 log M | Max Comp (%) [10]: 100% | Log IC50 [11]: -6.79 log M | Max Comp (%) [11]: 97%
B1: WKYMVm (peptide)
peptide: WKYMV[dM]
notes: the last residue is the D form; the bought peptide is probably also an amide (surmise); source: bought: Tocris
